Tested on: Escherichia coli TOP10
Test: shrunken log2 fold change of peptide-encoding DNA abundance (4.5 h post-induction vs induction); higher = less antimicrobial activity (less host growth inhibition)
Details: time post-induction: 4.5 h; library: site-saturation at positions 5, 18, 19, 20
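Also: peptides expressed intracellularly from a pBAD plasmid library in pooled LB shake-flask culture, induced with 0.3% L-arabinose, DNA abundance read by NGS, three biological replicates, DESeq2 with apeglm shrinkage.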

Sequence | shrunken log2 fold change
RRIRIRPPRLPRPRPRPFQRPRP | -0.0107
RRIRIRPPRLPRPRPRPFRCPRP | -0.192
RRIRIRPPRLPRPRPRPFRLPRP | -0.223
RRIRIRPPRLPRPRPRPFSRPRP | -0.0685
RRIRIRPPRLPRPRPRPFTNPRP | -0.16
RRIRIRPPRLPRPRPRPFTWPRP | -0.924
RRIRIRPPRLPRPRPRPFVQPRP | -0.634
RRIRIRPPRLPRPRPRPGGHPRP | -0.0701
RRIRIRPPRLPRPRPRPGHGPRP | -0.062
RRIRIRPPRLPRPRPRPGHVPRP | -0.0457
RRIRIRPPRLPRPRPRPGIAPRP | -0.184
RRIRIRPPRLPRPRPRPGKGPRP | -0.185
RRIRIRPPRLPRPRPRPGNIPRP | -0.479
RRIRIRPPRLPRPRPRPGPPPRP | 0.221
RRIRIRPPRLPRPRPRPGQIPRP | -0.0559
RRIRIRPPRLPRPRPRPGRLPRP | 0.12
RRIRIRPPRLPRPRPRPGRVPRP | 0.0447
RRIRIRPPRLPRPRPRPGSCPRP | 0.968
RRIRIRPPRLPRPRPRPGSQPRP | -0.0143
RRIRIRPPRLPRPRPRPGTEPRP | -0.0203
RRIRIRPPRLPRPRPRPGTPPRP | -0.0727
RRIRIRPPRLPRPRPRPGVDPRP | 0.0326
RRIRIRPPRLPRPRPRPGVSPRP | -0.351
RRIRIRPPRLPRPRPRPGWRPRP | 0.468
RRIRIRPPRLPRPRPRPHAEPRP | -0.217

Sequence | shrunken log2 fold change
RRIRIRPPRLPRPRPRPHCFPRP | -0.824
RRIRIRPPRLPRPRPRPHCIPRP | -2.92
RRIRIRPPRLPRPRPRPHCPPRP | -0.102
RRIRIRPPRLPRPRPRPHDEPRP | -0.463
RRIRIRPPRLPRPRPRPHDNPRP | -0.53
RRIRIRPPRLPRPRPRPHDQPRP | -0.573
RRIRIRPPRLPRPRPRPHFCPRP | -0.139
RRIRIRPPRLPRPRPRPHFKPRP | -0.368
RRIRIRPPRLPRPRPRPHGEPRP | -0.178
RRIRIRPPRLPRPRPRPHHKPRP | -1.18
RRIRIRPPRLPRPRPRPHHSPRP | -0.46
RRIRIRPPRLPRPRPRPHICPRP | -0.0273
RRIRIRPPRLPRPRPRPHILPRP | -1
RRIRIRPPRLPRPRPRPHITPRP | -0.66
RRIRIRPPRLPRPRPRPHLCPRP | 0.0475
RRIRIRPPRLPRPRPRPHLKPRP | -0.358
RRIRIRPPRLPRPRPRPHMMPRP | -1.37
RRIRIRPPRLPRPRPRPHMPPRP | -1.11
RRIRIRPPRLPRPRPRPHMSPRP | -0.109
RRIRIRPPRLPRPRPRPHNQPRP | -0.528
RRIRIRPPRLPRPRPRPHPVPRP | 0.0514
RRIRIRPPRLPRPRPRPHRPPRP | -0.166
RRIRIRPPRLPRPRPRPHRVPRP | -0.24
RRIRIRPPRLPRPRPRPHTNPRP | -0.906
RRIRIRPPRLPRPRPRPHVAPRP | -0.189

Sequence | shrunken log2 fold change
RRIRIRPPRLPRPRPRPHVEPRP | -0.227
RRIRIRPPRLPRPRPRPICGPRP | -0.161
RRIRIRPPRLPRPRPRPICNPRP | -0.607
RRIRIRPPRLPRPRPRPIDTPRP | -0.00177
RRIRIRPPRLPRPRPRPIEEPRP | -0.0195
RRIRIRPPRLPRPRPRPIEFPRP | -0.0138
RRIRIRPPRLPRPRPRPIFPPRP | -0.104
RRIRIRPPRLPRPRPRPIGYPRP | -0.085
RRIRIRPPRLPRPRPRPIHRPRP | -0.197
RRIRIRPPRLPRPRPRPIHVPRP | 0.0502
RRIRIRPPRLPRPRPRPIKAPRP | -0.38
RRIRIRPPRLPRPRPRPIMPPRP | -0.825
RRIRIRPPRLPRPRPRPINHPRP | -0.683
RRIRIRPPRLPRPRPRPIPPPRP | 0.112
RRIRIRPPRLPRPRPRPIQGPRP | -0.0119
RRIRIRPPRLPRPRPRPIQMPRP | -0.203
RRIRIRPPRLPRPRPRPIQWPRP | 0.0166
RRIRIRPPRLPRPRPRPIRDPRP | -0.0759
RRIRIRPPRLPRPRPRPISSPRP | -0.16
RRIRIRPPRLPRPRPRPITHPRP | -0.329
RRIRIRPPRLPRPRPRPITTPRP | -0.338
RRIRIRPPRLPRPRPRPIVAPRP | -0.119
RRIRIRPPRLPRPRPRPIVQPRP | -0.158
RRIRIRPPRLPRPRPRPIWLPRP | -0.11
RRIRIRPPRLPRPRPRPIWQPRP | 0.182
